Data as given in patent publication US9018171B2, “Uses of an immunomodulatory protein (GMI) from Ganoderma microsporum” (Mycomagic Biotechnology Co., Ltd., priority 2010, dated 2015).
Where two headings read alike, the source gives them in different places.

Experiments:
SR = assay: NCI60 in vitro screening, Leukemia; type: cell-based
NCI-H23 = type: cell-based
COLO 205 = assay: NCI60 in vitro screening, Colon Cancer; type: cell-based
HCT-116 = assay: NCI60 in vitro screening, Colon Cancer; type: cell-based
SF-268 = assay: NCI60 in vitro screening, CNS Cancer; type: cell-based
SF-539 = assay: NCI60 in vitro screening, CNS Cancer; type: cell-based
MALME-3M = assay: NCI60 in vitro screening, Melanoma; type: cell-based
M14 = assay: NCI60 in vitro screening, Melanoma; type: cell-based
SK-MEL-5 = assay: NCI60 in vitro screening, Melanoma; type: cell-based
IGROV1 = assay: NCI60 in vitro screening, Ovarian Cancer; type: cell-based
OVCAR-8 = assay: NCI60 in vitro screening, Ovarian Cancer; type: cell-based
786-0 = assay: NCI60 in vitro screening, Renal Cancer; type: cell-based
ACHN = assay: NCI60 in vitro screening, Renal Cancer; type: cell-based
SN12C = assay: NCI60 in vitro screening, Renal Cancer; type: cell-based
TK-10 = assay: NCI60 in vitro screening, Renal Cancer; type: cell-based

B1: GMI: immunomodulatory protein from Ganoderma microsporum, amino acid sequence SEQ ID NO: 3, manufactured by Mycomagic Biotechnology Co., Ltd. (protein, listed as Ganoderma microsporum)
chain: MSDTALIFTLAWNVKQLAFDYTPNWGRGRPSSFIDTVTFPTVLTDKAYTYRVVVSGKDLGVRPSYAVESDGSQKINFLEYNSGYGIADTNTIQVYVIDPDTGNNFIVAQWN
SR
  TGI: >1.25E2
SR; Log10 Concentration 0.1
  Percent Growth: 96%
SR; Log10 Concentration 1.1
  Percent Growth: 17%
SR; Log10 Concentration 2.1
  Percent Growth: 1%
SR; Log10 Concentration −0.9
  Percent Growth: 96%
SR; Log10 Concentration −1.9
  Percent Growth: 98%
SR; in µg/mL
  GI50: 4.79E0
SR; one dose
  Growth Percent: 32.47%
NCI-H23; NCI-H23
  TGI: >1.25E2
NCI-H23; NCI-H23, Log10 Concentration 0.1
  Percent Growth: 106%
NCI-H23; NCI-H23, Log10 Concentration 1.1
  Percent Growth: 89%
NCI-H23; NCI-H23, Log10 Concentration 2.1
  Percent Growth: 66%
NCI-H23; NCI-H23, Log10 Concentration −0.9
  Percent Growth: 101%
NCI-H23; NCI-H23, Log10 Concentration −1.9
  Percent Growth: 99%
NCI-H23; NCI-H23, one dose
  Growth Percent: 91.82%
COLO 205; COLO 205
  TGI: >1.25E2
COLO 205; COLO 205, Log10 Concentration 0.1
  Percent Growth: 100%
COLO 205; COLO 205, Log10 Concentration 1.1
  Percent Growth: 95%
COLO 205; COLO 205, Log10 Concentration 2.1
  Percent Growth: 95%
COLO 205; COLO 205, Log10 Concentration −0.9
  Percent Growth: 98%
COLO 205; COLO 205, Log10 Concentration −1.9
  Percent Growth: 95%
COLO 205; COLO 205, one dose
  Growth Percent: 105.56%
HCT-116; HCT-116
  TGI: >1.25E2
HCT-116; HCT-116, Log10 Concentration 0.1
  Percent Growth: 101%
HCT-116; HCT-116, Log10 Concentration 1.1
  Percent Growth: 103%
HCT-116; HCT-116, Log10 Concentration 2.1
  Percent Growth: 104%
HCT-116; HCT-116, Log10 Concentration −0.9
  Percent Growth: 105%
HCT-116; HCT-116, Log10 Concentration −1.9
  Percent Growth: 98%
HCT-116; HCT-116, one dose
  Growth Percent: 101.77%
SF-268; SF-268
  TGI: >1.25E2
SF-268; SF-268, Log10 Concentration 0.1
  Percent Growth: 108%
SF-268; SF-268, Log10 Concentration 1.1
  Percent Growth: 52%
SF-268; SF-268, Log10 Concentration 2.1
  Percent Growth: 4%
SF-268; SF-268, Log10 Concentration −0.9
  Percent Growth: 101%
SF-268; SF-268, Log10 Concentration −1.9
  Percent Growth: 95%
SF-268; SF-268, one dose
  Growth Percent: 39.72%
SF-268; SF-268, in µg/mL
  GI50: 2.02E1
SF-539; SF-539
  TGI: 6.02E1
SF-539; SF-539, Log10 Concentration 0.1
  Percent Growth: 102%
SF-539; SF-539, Log10 Concentration 1.1
  Percent Growth: 80%
SF-539; SF-539, Log10 Concentration 2.1
  Percent Growth: −37%
SF-539; SF-539, Log10 Concentration −0.9
  Percent Growth: 111%
SF-539; SF-539, Log10 Concentration −1.9
  Percent Growth: 108%
SF-539; SF-539, one dose
  Growth Percent: 48.19%
SF-539; SF-539, in µg/mL
  GI50: 2.26E1
MALME-3M
  TGI: >1.25E2
MALME-3M; Log10 Concentration 0.1
  Percent Growth: 118%
MALME-3M; Log10 Concentration 1.1
  Percent Growth: 114%
MALME-3M; Log10 Concentration 2.1
  Percent Growth: 74%
MALME-3M; Log10 Concentration −0.9
  Percent Growth: 102%
MALME-3M; Log10 Concentration −1.9
  Percent Growth: 100%
MALME-3M; one dose
  Growth Percent: 114.17%
M14; M14
  TGI: >1.25E2
M14; M14, Log10 Concentration 0.1
  Percent Growth: 106%
M14; M14, Log10 Concentration 1.1
  Percent Growth: 76%
M14; M14, Log10 Concentration 2.1
  Percent Growth: 1%
M14; M14, Log10 Concentration −0.9
  Percent Growth: 96%
M14; M14, Log10 Concentration −1.9
  Percent Growth: 98%
M14; M14, one dose
  Growth Percent: 94.87%
M14; M14, in µg/mL
  GI50: 2.78E1
SK-MEL-5; SK-MEL-5
  TGI: 4.26E1
SK-MEL-5; SK-MEL-5, Log10 Concentration 0.1
  Percent Growth: 103%
SK-MEL-5; SK-MEL-5, Log10 Concentration 1.1
  Percent Growth: 94%
SK-MEL-5; SK-MEL-5, Log10 Concentration 2.1
  Percent Growth: −83%
SK-MEL-5; SK-MEL-5, Log10 Concentration −0.9
  Percent Growth: 101%
SK-MEL-5; SK-MEL-5, Log10 Concentration −1.9
  Percent Growth: 101%
SK-MEL-5; SK-MEL-5, one dose
  Growth Percent: 83.26%
SK-MEL-5; SK-MEL-5, in µg/mL
  GI50: 2.22E1
  LC50: 8.17E1
IGROV1; IGROV1
  TGI: >1.25E2
IGROV1; IGROV1, Log10 Concentration 0.1
  Percent Growth: 117%
IGROV1; IGROV1, Log10 Concentration 1.1
  Percent Growth: 62%
IGROV1; IGROV1, Log10 Concentration 2.1
  Percent Growth: 30%
IGROV1; IGROV1, Log10 Concentration −0.9
  Percent Growth: 98%
IGROV1; IGROV1, Log10 Concentration −1.9
  Percent Growth: 103%
IGROV1; IGROV1, one dose
  Growth Percent: 30.07%
IGROV1; IGROV1, in µg/mL
  GI50: 2.94E1
OVCAR-8; OVCAR-8
  TGI: >1.25E2
OVCAR-8; OVCAR-8, Log10 Concentration 0.1
  Percent Growth: 99%
OVCAR-8; OVCAR-8, Log10 Concentration 1.1
  Percent Growth: 91%
OVCAR-8; OVCAR-8, Log10 Concentration 2.1
  Percent Growth: 31%
OVCAR-8; OVCAR-8, Log10 Concentration −0.9
  Percent Growth: 95%
OVCAR-8; OVCAR-8, Log10 Concentration −1.9
  Percent Growth: 98%
OVCAR-8; OVCAR-8, one dose
  Growth Percent: 76.68%
OVCAR-8; OVCAR-8, in µg/mL
  GI50: 6.00E1
786-0; 786-0
  TGI: >1.25E2
786-0; 786-0, Log10 Concentration 0.1
  Percent Growth: 111%
786-0; 786-0, Log10 Concentration 1.1
  Percent Growth: 73%
786-0; 786-0, Log10 Concentration 2.1
  Percent Growth: 4%
786-0; 786-0, Log10 Concentration −0.9
  Percent Growth: 99%
786-0; 786-0, Log10 Concentration −1.9
  Percent Growth: 100%
786-0; 786-0, one dose
  Growth Percent: 74.75%
786-0; 786-0, in µg/mL
  GI50: 2.70E1
ACHN
  TGI: 3.62E1
ACHN; Log10 Concentration 0.1
  Percent Growth: 103%
ACHN; Log10 Concentration 1.1
  Percent Growth: 36%
ACHN; Log10 Concentration 2.1
  Percent Growth: −42%
ACHN; Log10 Concentration −0.9
  Percent Growth: 99%
ACHN; Log10 Concentration −1.9
  Percent Growth: 109%
ACHN; in µg/mL
  GI50: 7.65E0
ACHN; one dose
  Growth Percent: −33.94%
SN12C
  TGI: >1.25E2
SN12C; Log10 Concentration 0.1
  Percent Growth: 99%
SN12C; Log10 Concentration 1.1
  Percent Growth: 81%
SN12C; Log10 Concentration 2.1
  Percent Growth: 30%
SN12C; Log10 Concentration −0.9
  Percent Growth: 104%
SN12C; Log10 Concentration −1.9
  Percent Growth: 102%
SN12C; in µg/mL
  GI50: 5.05E1
SN12C; one dose
  Growth Percent: 74.30%
TK-10; TK-10
  TGI: 4.91E0
TK-10; TK-10, Log10 Concentration 0.1
  Percent Growth: 106%
TK-10; TK-10, Log10 Concentration 1.1
  Percent Growth: −72%
TK-10; TK-10, Log10 Concentration 2.1
  Percent Growth: −100%
TK-10; TK-10, Log10 Concentration −0.9
  Percent Growth: 98%
TK-10; TK-10, Log10 Concentration −1.9
  Percent Growth: 96%
TK-10; TK-10, one dose
  Growth Percent: −92.37%
TK-10; TK-10, in µg/mL
  GI50: 2.57E0
  LC50: 9.38E0
BT-549
  LC50: 7.24E1
BT-549; BT-549
  TGI: 2.27E1
BT-549; BT-549, Log10 Concentration 0.1
  Percent Growth: 100%
BT-549; BT-549, Log10 Concentration 1.1
  Percent Growth: 26%
BT-549; BT-549, Log10 Concentration 2.1
  Percent Growth: −74%
BT-549; BT-549, Log10 Concentration −0.9
  Percent Growth: 98%
BT-549; BT-549, Log10 Concentration −1.9
  Percent Growth: 104%
BT-549; BT-549, one dose
  Growth Percent: −74.30%
BT-549; BT-549, in µg/mL
  GI50: 5.89E0
